The values below come from IntAct's records for PubMed 12679424.

B1: Insulin receptor substrate 1 (Homo sapiens), P35568 (parent)
chain: MASPPESDGFSDVRKVGYLRKPKSMHKRFFVLRAASEAGGPARLEYYENEKKWRHKSSAPKRSIPLESCFNINKRADSKNKHLVALYTRDEHFAIAADSEAEQDSWYQALLQLHNRAKGHHDGAAALGAGGGGGSCSGSSGLGEAGEDLSYGDVPPGPAFKEVWQVILKPKGLGQTKNLIGIYRLCLTSKTISFVKLNSEAAAVVLQLMNIRRCGHSENFFFIEVGRSAVTGPGEFWMQVDDSVVAQNMHETILEAMRAMSDEFRPRSKSQSSSNCSNPISVPLRRHHLNNPPPSQVGLTRRSRTESITATSPASMVGGKPGSFRVRASSDGEGTMSRPASVDGSPVSPSTNRTHAHRHRGSARLHPPLNHSRSIPMPASRCSPSATSPVSLSSSSTSGHGSTSDCLFPRRSSASVSGSPSDGGFISSDEYGSSPCDFRSSFRSVTPDSLGHTPPARGEEELSNYICMGGKGPSTLTAPNGHYILSRGGNGHRCTPGTGLGTSPALAGDEAASAADLDNRFRKRTHSAGTSPTITHQKTPSQSSVASIEEYTEMMPAYPPGGGSGGRLPGHRHSAFVPTRSYPEEGLEMHPLERRGGHHRPDSSTLHTDDGYMPMSPGVAPVPSGRKGSGDYMPMSPKSVSAPQQIINPIRRHPQRVDPNGYMMMSPSGGCSPDIGGGPSSSSSSSNAVPSGTSYGKLWTNGVGGHHSHVLPHPKPPVESSGGKLLPCTGDYMNMSPVGDSNTSSPSDCYYGPEDPQHKPVLSYYSLPRSFKHTQRPGEPEEGARHQHLRLSTSSGRLLYAATADDSSSSTSSDSLGGGYCGARLEPSLPHPHHQVLQPHLPRKVDTAAQTNSRLARPTRLSLGDPKASTLPRAREQQQQQQPLLHPPEPKSPGEYVNIEFGSDQSGYLSGPVAFHSSPSVRCPSQLQPAPREEETGTEEYMKMDLGPGRRAAWQESTGVEMGRLGPAPPGAASICRPTRAVPSSRGDYMTMQMSCPRQSYVDTSPAAPVSYADMRTGIAAEEVSLPRATMAAASSSSAASASPTGPQGAAELAAHSSLLGGPQGPGGMSAFTRVNLSPNRNQSAKVIRADPQGCRRRHSSETFSSTPSATRVGNTVPFGAGAAVGGGGGSSSSSEDVKRHSSASFENVWLRPGELGGAPKEPAKLCGAAGGLENGLNYIDLDLVKDFKQCPQECTPEPQPPPPPPPHQPLGSGESSSTRRSSEDLSAYASISFQKQPEDRQ

This assay covers variants of B1. The conditions noted are these: with p85a_mouse Pik3r1, P26450.
Sequence of p85a_mouse Pik3r1, P26450 (P26450 whole entry): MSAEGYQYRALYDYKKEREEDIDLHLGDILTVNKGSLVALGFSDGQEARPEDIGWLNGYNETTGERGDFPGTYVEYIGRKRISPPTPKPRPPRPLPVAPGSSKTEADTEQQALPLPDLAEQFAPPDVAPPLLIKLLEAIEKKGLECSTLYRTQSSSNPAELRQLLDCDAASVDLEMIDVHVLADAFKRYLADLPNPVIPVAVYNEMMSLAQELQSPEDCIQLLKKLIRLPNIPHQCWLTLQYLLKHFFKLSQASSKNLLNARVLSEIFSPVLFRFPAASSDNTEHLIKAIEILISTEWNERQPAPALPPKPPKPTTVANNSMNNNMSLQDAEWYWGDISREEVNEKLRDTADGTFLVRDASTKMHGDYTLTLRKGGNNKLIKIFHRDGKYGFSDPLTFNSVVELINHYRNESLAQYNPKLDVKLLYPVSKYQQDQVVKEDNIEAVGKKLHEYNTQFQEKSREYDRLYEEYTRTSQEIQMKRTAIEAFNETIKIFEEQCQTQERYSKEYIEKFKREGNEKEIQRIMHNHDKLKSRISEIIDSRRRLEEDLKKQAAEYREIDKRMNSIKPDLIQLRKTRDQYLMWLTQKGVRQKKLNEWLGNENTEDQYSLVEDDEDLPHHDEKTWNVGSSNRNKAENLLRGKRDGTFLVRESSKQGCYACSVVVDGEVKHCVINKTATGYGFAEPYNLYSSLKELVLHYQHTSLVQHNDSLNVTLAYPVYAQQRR
Consider T608R, for which the “effect of a mutation on the interaction” value is listed as “decreasing interaction”.
